Test results reported in patent publication US11493476B2, “Charge detector and process for sensing a charged analyte” (Government of the United States of America, as represented …, priority 2016, dated 2022).

Experiments:
Type in all cases: biochemical
Cdk5/p25 [1] = biological target: T1, Cdk5/p25 (Homo sapiens, UniProt Q00535); assay: Radioactively labeled γ-32P-ATP enzyme activity assay; conditions: radioactively labeled γ-32P-ATP assay
Cdk5/p25 [2] = biological target: T1, Cdk5/p25; assay: Ionic liquid-gated FET measurement of solution pH change during Cdk5/p25-catalysed phosphorylation of histone H1, steady state; conditions: FET measurements, non-linear regression, measured differentially against control without ATP
Text: With regard to enzyme activity and kinetics, the ultrasensitive FET devices measured activity and kinetics of proline directed kinase Cdk5. Under normal physiological conditions, Cdk5 is tightly regulated by either the p35 or p39 […] proteins. Oxidative stress causes a 10 kDa membrane anchored fragment of p35 to be cleaved, forming the pathological activator p25, resulting in deregulation and delocalization of the complex to the cytosol. […]
Cdk5 mediated phosphorylation results in the release of a proton during ATP hydrolysis and the transfer of a single phosphate group to either a serine or threonine residue immediately preceding a proline. Here, ionic liquid-gated FETs detected small changes in the solution pH during phosphorylation of the substrate protein, histone H1.
In each case, Vt,BG was estimated from an ID-VBG plot. To account for instrument drift, each data point in the figure was measured differentially with a control sample that was identical to the measured vials except for the absence of ATP, thereby inhibiting the phosphorylation reaction. […]
[formula] where k is a constant, [H1] is the concentration of histone H1 and γ is a scaling constant. For the FET measurements in FIG. 54, we estimated k=17.5±1.3 μM from a non-linear regression of the model to the measured data, consistent with previously published activity measurements for the pathological Cdk5/p25 complex. […]

Cdk5/p25 [3] = biological target: T1, Cdk5/p25; assay: FET time-series measurement of enzyme catalyzed phosphorylation (reaction kinetics); conditions: Cdk5/p25 3.8 μM; [H1] 9.1, 12.7, 18.2 μM; independent of the histone H1 concentration
Text: With reference to FIG. 53, FIG. 54, FIG. 55, and FIG. 56, ionic liquid-gate field-effect transistors (FET) were used for label-free enzyme activity and kinetics measurements. The proline directed kinase Cdk5 catalyzes the phosphorylation of substrate proteins (e.g., histone H1) in the presence of an activator (e.g., p25) and adenosine triphosphate (ATP). The hydrolysis of ATP results in the transfer of a single phosphate group to either a serine (Ser) or threonine (Thr) residue in the substrate protein and the release of a proton into solution, resulting in a change in solution pH. Moreover, ionic liquid-gate FETs measured change in solution pH as a function of the histone H1 concentration ([H1]) inferentially provide activity of Cdk5 under steady-state conditions. FET measurements were in quantitative agreement with a complementary assay that used radioactively labeled 32P-ATP as a reporter of Cdk5 activity. Time-series measurements of enzyme catalyzed phosphorylation as a function of [H1] […] The solid lines depict the reaction kinetics model that describes the time course of phosphorylation, while the dashed lines represent an estimate of the reaction velocity during the first 100 s after a change in the signal was detected.
The concentration of the Cdk5/p25 complex in these measurements was 3.8 μM (5-fold lower than the quantity used in FIG. 54 and FIG. 55). […]

T1 sequence (Q00535 whole entry, species assumed): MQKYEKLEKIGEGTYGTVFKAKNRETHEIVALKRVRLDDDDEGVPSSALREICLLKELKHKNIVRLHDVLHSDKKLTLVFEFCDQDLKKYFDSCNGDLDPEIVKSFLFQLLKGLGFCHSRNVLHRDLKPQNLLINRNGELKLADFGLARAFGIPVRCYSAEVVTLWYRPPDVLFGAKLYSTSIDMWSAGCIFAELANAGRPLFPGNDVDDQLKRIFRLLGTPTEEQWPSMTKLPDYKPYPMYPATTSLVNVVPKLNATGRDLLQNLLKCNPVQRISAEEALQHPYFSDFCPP
T1 sequence (Q15078 99-307 partner limits assumed, species assumed): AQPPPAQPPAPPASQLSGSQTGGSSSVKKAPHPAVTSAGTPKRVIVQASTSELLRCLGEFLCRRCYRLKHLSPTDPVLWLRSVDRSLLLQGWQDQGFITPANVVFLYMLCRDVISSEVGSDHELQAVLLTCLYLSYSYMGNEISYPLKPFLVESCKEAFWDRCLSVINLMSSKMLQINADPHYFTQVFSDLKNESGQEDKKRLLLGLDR

rate constant k1 (first order rate law) (Cdk5/p25 [3]): 0.18±0.02 per min
Substance: histone H1
k (constant of kinase activity model versus histone H1 concentration) (Cdk5/p25 [1]): 12.1 ± 2.3 µM | k (constant of kinase activity model versus histone H1 concentration) (Cdk5/p25 [2]): 17.5 ± 1.3 µM
